Measured values as given in the Immune Epitope Database (IEDB).

Columns and labels:
Experiment in all cases: IEDB peptide-MHC binding, purified MHC/competitive/radioactivity; filed as Kd, often an IC50 or EC50 that approximates it; ≥ and ≤ were set here for values at or beyond the usual limits of such assays
HLA-A*31:01 = target: HLA-A*31:01
HLA-A*03:01 = target: HLA-A*03:01
HLA-A*11:01 = target: HLA-A*11:01
HLA-A*68:01 = target: HLA-A*68:01
HLA-A*33:01 = target: HLA-A*33:01
[1] = source organism: Vaccinia virus WR
[2] = source organism: Dengue virus 4 Philippines/H241/1956
[3] = source organism: SARS coronavirus Tor2
[4] = source organism: Dengue virus 3 Martinique/1243/1999
[5] = source organism: Dengue virus 2 Jamaica/1409/1983
[6] = source organism: Dengue virus 1 Brazil/97-11/1997
[7] = source organism: Mammarenavirus juninense
[8] = source organism: Mammarenavirus lassaense

RIGTAATKRY
Kd (HLA-A*31:01; [1]): ≥ 70000 nM
Kd (HLA-A*03:01; [1]): 1250 nM
Kd (HLA-A*11:01; [1]): ≥ 69800 nM
Kd (HLA-A*68:01; [1]): ≥ 59600 nM
Kd (HLA-A*33:01; [1]): ≥ 70000 nM

VTFKVPHAK
Kd (HLA-A*03:01; [2]): 10.2 nM
Kd (HLA-A*11:01; [2]): 53.2 nM
Kd (HLA-A*68:01; [2]): 177 nM

LSKDKMDSFK
Kd (HLA-A*31:01; [1]): 27.8 nM
Kd (HLA-A*03:01; [1]): 25.1 nM
Kd (HLA-A*11:01; [1]): 15 nM
Kd (HLA-A*68:01; [1]): 1.46 nM
Kd (HLA-A*33:01; [1]): 304 nM

IVFVCVEYY
Kd (HLA-A*31:01; [3]): 112 nM
Kd (HLA-A*03:01; [3]): 49.7 nM
Kd (HLA-A*11:01; [3]): 41 nM
Kd (HLA-A*68:01; [3]): 23 nM
Kd (HLA-A*33:01; [3]): 844 nM

MGITAEWLWR
Kd (HLA-A*31:01; [4]): 88.5 nM

VFIHMVRCCK
Kd (HLA-A*31:01; [1]): 43.9 nM
Kd (HLA-A*03:01; [1]): ≥ 20900 nM
Kd (HLA-A*11:01; [1]): 4820 nM
Kd (HLA-A*68:01; [1]): ≥ 24500 nM
Kd (HLA-A*33:01; [1]): 212 nM

VLSAATETY
Kd (HLA-A*31:01; [1]): ≥ 69700 nM
Kd (HLA-A*03:01; [1]): 3010 nM
Kd (HLA-A*11:01; [1]): 6460 nM
Kd (HLA-A*68:01; [1]): 1470 nM
Kd (HLA-A*33:01; [1]): ≥ 77700 nM

CFPSTQRDY
Kd (HLA-A*31:01; [1]): 9810 nM
Kd (HLA-A*03:01; [1]): 868 nM
Kd (HLA-A*11:01; [1]): 2510 nM
Kd (HLA-A*68:01; [1]): ≥ 58400 nM
Kd (HLA-A*33:01; [1]): ≥ 77700 nM

KSEFQIYKK
Kd (HLA-A*11:01; [5]): 244 nM

YVKALTKNY
Kd (HLA-A*31:01; [1]): ≥ 77900 nM
Kd (HLA-A*03:01; [1]): 1590 nM
Kd (HLA-A*11:01; [1]): 12700 nM
Kd (HLA-A*68:01; [1]): 1800 nM
Kd (HLA-A*33:01; [1]): ≥ 77700 nM

KTQVGVGVQK
Kd (HLA-A*11:01; [4]): 59.5 nM

RTYSDPLALR
Kd (HLA-A*31:01; [6]): ≥ 70000 nM
Kd (HLA-A*11:01; [6]): 92.1 nM
Kd (HLA-A*68:01; [6]): 18.8 nM

FLSGKGLGK
Kd (HLA-A*03:01; [6]): 6.26 nM

QQQGQTVTK
Kd (HLA-A*31:01; [3]): 3030 nM
Kd (HLA-A*03:01; [3]): 16600 nM
Kd (HLA-A*11:01; [3]): 476 nM
Kd (HLA-A*68:01; [3]): ≥ 50500 nM
Kd (HLA-A*33:01; [3]): ≥ 30400 nM

ASLPTTIAK
Kd (HLA-A*31:01; [3]): 118 nM
Kd (HLA-A*68:01; [3]): 2030 nM
Kd (HLA-A*33:01; [3]): ≥ 40300 nM

SWPVQCPLDH
Kd (HLA-A*31:01; [7]): 9.74 nM
Kd (HLA-A*03:01; [7]): ≥ 70000 nM
Kd (HLA-A*11:01; [7]): ≥ 69700 nM
Kd (HLA-A*68:01; [7]): ≥ 70100 nM
Kd (HLA-A*33:01; [7]): 19400 nM

NVYADSFVVK
Kd (HLA-A*31:01; [3]): 386 nM
Kd (HLA-A*03:01; [3]): 76.5 nM
Kd (HLA-A*11:01; [3]): 101 nM
Kd (HLA-A*68:01; [3]): 29.3 nM
Kd (HLA-A*33:01; [3]): 972 nM

AGLAFSIMK
Kd (HLA-A*11:01; [4]): 13.8 nM

KVKYLYFIK
Kd (HLA-A*31:01; [3]): 0.138 nM
Kd (HLA-A*03:01; [3]): 113 nM
Kd (HLA-A*11:01; [3]): 49.1 nM
Kd (HLA-A*68:01; [3]): 968 nM
Kd (HLA-A*33:01; [3]): 9300 nM

HSYAGDAAEH
Kd (HLA-A*31:01; [8]): 2960 nM
Kd (HLA-A*03:01; [8]): 1480 nM
Kd (HLA-A*11:01; [8]): 17700 nM
Kd (HLA-A*68:01; [8]): 578 nM
Kd (HLA-A*33:01; [8]): ≥ 48000 nM

IMDLHPGSGK
Kd (HLA-A*03:01; [6]): 60.1 nM

GMMVLKIVR
Kd (HLA-A*31:01; [5]): 11.3 nM

TSASEIKDR
Kd (HLA-A*31:01; [1]): 18900 nM
Kd (HLA-A*03:01; [1]): ≥ 78000 nM
Kd (HLA-A*11:01; [1]): 1680 nM
Kd (HLA-A*68:01; [1]): 9.93 nM
Kd (HLA-A*33:01; [1]): 1340 nM

MLLQFAYSNR
Kd (HLA-A*31:01; [3]): 22.5 nM
Kd (HLA-A*03:01; [3]): 164 nM
Kd (HLA-A*11:01; [3]): 860 nM
Kd (HLA-A*68:01; [3]): 50.8 nM
Kd (HLA-A*33:01; [3]): 114 nM

NSNIIKNKK
Kd (HLA-A*31:01; [1]): 1250 nM
Kd (HLA-A*03:01; [1]): 10200 nM
Kd (HLA-A*11:01; [1]): 1240 nM
Kd (HLA-A*68:01; [1]): 241 nM
Kd (HLA-A*33:01; [1]): 4300 nM

GQRCHFIKK
Kd (HLA-A*31:01; [1]): 62 nM
Kd (HLA-A*03:01; [1]): 21.4 nM
Kd (HLA-A*11:01; [1]): 13.4 nM
Kd (HLA-A*68:01; [1]): ≥ 25000 nM
Kd (HLA-A*33:01; [1]): 13200 nM

QAELTSNCTR
Kd (HLA-A*31:01; [1]): 801 nM
Kd (HLA-A*03:01; [1]): 2530 nM
Kd (HLA-A*11:01; [1]): 2430 nM
Kd (HLA-A*68:01; [1]): 240 nM
Kd (HLA-A*33:01; [1]): 818 nM

IMVASDVCKK
Kd (HLA-A*31:01; [1]): 270 nM
Kd (HLA-A*03:01; [1]): 16.9 nM
Kd (HLA-A*11:01; [1]): 53.3 nM
Kd (HLA-A*68:01; [1]): 74.4 nM
Kd (HLA-A*33:01; [1]): 7130 nM

GMSYYCKSHK
Kd (HLA-A*31:01; [3]): 111 nM
Kd (HLA-A*03:01; [3]): 20 nM
Kd (HLA-A*11:01; [3]): 91.3 nM
Kd (HLA-A*68:01; [3]): 1370 nM
Kd (HLA-A*33:01; [3]): 9960 nM

KAIKILIGFR
Kd (HLA-A*31:01; source organism: Dengue virus 4 Dominica/814669/1981): 8.62 nM

DLDKVYEILK
Kd (HLA-A*31:01; [1]): 12000 nM
Kd (HLA-A*03:01; [1]): 3350 nM
Kd (HLA-A*11:01; [1]): 751 nM
Kd (HLA-A*68:01; [1]): 1300 nM
Kd (HLA-A*33:01; [1]): ≥ 24300 nM

GVEDTESIER
Kd (HLA-A*31:01; [1]): 1930 nM
Kd (HLA-A*03:01; [1]): ≥ 70100 nM
Kd (HLA-A*11:01; [1]): 948 nM
Kd (HLA-A*68:01; [1]): 1840 nM
Kd (HLA-A*33:01; [1]): 673 nM

STELIRRVR
Kd (HLA-A*31:01; [1]): 91.8 nM
Kd (HLA-A*03:01; [1]): 13.9 nM
Kd (HLA-A*11:01; [1]): 127 nM
Kd (HLA-A*68:01; [1]): 57.1 nM
Kd (HLA-A*33:01; [1]): 1320 nM

IFYFISIYSR
Kd (HLA-A*31:01; [1]): 2.39 nM
Kd (HLA-A*03:01; [1]): 175 nM
Kd (HLA-A*11:01; [1]): 4180 nM
Kd (HLA-A*68:01; [1]): 38.9 nM
Kd (HLA-A*33:01; [1]): 76.2 nM

MVEPWLSSK
Kd (HLA-A*11:01; [2]): 648 nM

KFQADSPKR
Kd (HLA-A*31:01; [6]): 39.9 nM

RILQRGLLGR
Kd (HLA-A*31:01; [6]): ≥ 70000 nM
Kd (HLA-A*03:01; [6]): 16.4 nM

YMPSMKRFRR
Kd (HLA-A*31:01; [5]): 10.2 nM
Kd (HLA-A*68:01; [5]): 1110 nM
Kd (HLA-A*33:01; [5]): 10.7 nM

AVQTKPGLFK
Kd (HLA-A*03:01; [5]): 16.6 nM
Kd (HLA-A*11:01; [5]): 37.9 nM

TFKVPHAKR
Kd (HLA-A*31:01; [2]): 1.2 nM
Kd (HLA-A*33:01; [2]): 15.8 nM

KLIHEWCCR
Kd (HLA-A*31:01; [4]): 39.6 nM

KEFKDFAAGR
Kd (HLA-A*31:01; [4]): 405 nM

SAAIDGEYR
Kd (HLA-A*68:01; [6]): 41.6 nM

TLLSLTFIK
Kd (HLA-A*03:01; [6]): 1.36 nM
Kd (HLA-A*11:01; [6]): 12.3 nM

MTHRRPTIEK
Kd (HLA-A*03:01; [4]): 5.64 nM
Kd (HLA-A*11:01; [4]): 117 nM
Kd (HLA-A*68:01; [4]): 196 nM

STSQETWNR
Kd (HLA-A*68:01; [6]): 68.8 nM

EITHHAVSR
Kd (HLA-A*68:01; [4]): 24.1 nM
Kd (HLA-A*33:01; [4]): 89.8 nM

HLKCKVRMEK
Kd (HLA-A*03:01; [2]): 55.4 nM

SAKLQWFVER
Kd (HLA-A*31:01; [4]): 34.7 nM
Kd (HLA-A*33:01; [4]): 83 nM

TTVITPMMR
Kd (HLA-A*68:01; [6]): 34.6 nM

AMRCVGIGNR
Kd (HLA-A*31:01; [6]): 872 nM
